Reference: the supplement of paper PMC10126150
± gives the standard deviation of the averaged measurements.

Tested on: ATP
Test: switch fluorescence ratio, 500 uM ATP over buffer (Cy3 cluster intensity, sum of 5 cycles each) (fold (ratio)); higher = stronger signal-on switching upon ATP binding; sequences stand for … in TCGTCGGCAGCGTCAGATGTGTATAAGAGACAGTTTTTTTTTTTTTTTTTTTTTTTTT…TC
Conditions: aptamer strand: ATP DNA aptamer (quencher-CACCTGGGGGAGTATTGCGGAGGAAGG + anchor), 100 nM annealed; ATP concentration: 500 uM
In short: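 Five buffer/ATP imaging cycles were run on Cy3-labelled switching-strand clusters on a modified Illumina MiSeq flow-cell, with NaOH stripping and re-annealing between cycles. In each cycle, clusters annealed to 100 nM quencher-labelled ATP aptamer were imaged in selection buffer, then after 15 min with 500 uM ATP at 22 °C. Per cluster, the fluorescence ratio is summed target-cycle over summed buffer-cycle Cy3 intensity, averaged per switch-domain sequence. Only clusters within 100-1000 RFU were kept.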
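Also: ATP exposure 15 min at 22 °C before imaging.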

For TCATGGAATT, the switch fluorescence ratio was 1 ± 0.031.
TCATGGACTG showed a switch fluorescence ratio of 1.06 ± 0.02.
In the case of TCATGGATCC, the switch fluorescence ratio is reported as 1.01 ± 0.035.
Work on TCATGGGTAA yielded a switch fluorescence ratio of 1.01 ± 0.029.
For TCATGGGTGG, the switch fluorescence ratio was 0.99 ± 0.02.
With TCATGGGTTG the switch fluorescence ratio was 0.981 ± 0.0053.
For TCATGGTGAT, the switch fluorescence ratio was 1.022 ± 0.0013.
TCATGGTTTA showed a switch fluorescence ratio of 1.01 ± 0.016.
TCATGTAAGA showed a switch fluorescence ratio of 0.998 ± 0.024.
TCATGTATGG gave a switch fluorescence ratio of 0.977 ± 0.012.
With TCATGTTAGG the switch fluorescence ratio was 0.994 ± 0.0075.
TCATGTTCGG showed a switch fluorescence ratio of 1.02 ± 0.034.
In the case of TCATTAATAT, the switch fluorescence ratio is reported as 1.16 ± 0.22.
TCATTAGAGG gave a switch fluorescence ratio of 0.9942 ± 0.0067.
In the case of TCATTCCACT, the switch fluorescence ratio is reported as 1.031 ± 0.0059.
TCATTGGGAA showed a switch fluorescence ratio of 1.01 ± 0.021.
For TCATTGGTTT, the switch fluorescence ratio was 0.998 ± 0.032.
In the case of TCATTTACAT, the switch fluorescence ratio is reported as 1.04 ± 0.037.
TCATTTCGCC showed a switch fluorescence ratio of 1.071 ± 0.0047.
TCATTTCGGG gave a switch fluorescence ratio of 0.991 ± 0.038.
With TCATTTGATA the switch fluorescence ratio was 1.03 ± 0.035.
TCCAAGGGGG was tested, and the switch fluorescence ratio was 1.024 ± 0.0066.
TCCAAGGGTA was tested, and the switch fluorescence ratio was 0.997 ± 0.025.
With TCCAAGTCGA the switch fluorescence ratio was 1.041 ± 0.0033.
For TCCAATCATG, the switch fluorescence ratio was 0.9765 ± 0.0095.
TCCACCGGCT showed a switch fluorescence ratio of 1.03 ± 0.052.
For TCCACCGTCG, the switch fluorescence ratio was 1.27 ± 0.065.
Sequence TCCACCGTTC has a switch fluorescence ratio of 1.66 ± 0.77.
With TCCACGGGG the switch fluorescence ratio was 1.12 ± 0.057.
For TCCAGAACCC, the switch fluorescence ratio was 1 ± 0.011.
For TCCAGGAATT, the switch fluorescence ratio was 1 ± 0.016.
TCCAGGGCG gave a switch fluorescence ratio of 1.03 ± 0.029.
For TCCAGGGTCA, the switch fluorescence ratio was 1.01 ± 0.025.
With TCCAGGTCGG the switch fluorescence ratio was 1.2 ± 0.025.
For TCCATAGTCG, the switch fluorescence ratio was 1.03 ± 0.014.
Work on TCCATGTTGA yielded a switch fluorescence ratio of 1.03 ± 0.019.
TCCATTAAAA gave a switch fluorescence ratio of 0.976 ± 0.036.
TCCATTAGTT showed a switch fluorescence ratio of 1.04 ± 0.069.
In the case of TCCATTCCGA, the switch fluorescence ratio is reported as 1.17 ± 0.13.
With TCCATTTTCG the switch fluorescence ratio was 0.984 ± 0.025.
TCCCAAACAT was tested, and the switch fluorescence ratio was 1.06 ± 0.009.
For TCCCAAATTT, the switch fluorescence ratio was 0.983 ± 0.032.
Sequence TCCCATAAGC has a switch fluorescence ratio of 1.099 ± 0.0051.
TCCCATGGCG was tested, and the switch fluorescence ratio was 1.04 ± 0.062.
With TCCCCATGGC the switch fluorescence ratio was 1.35 ± 0.1.
With TCCCGGGTAT the switch fluorescence ratio was 0.9787 ± 0.0073.
TCCCGGTTTG was tested, and the switch fluorescence ratio was 1.009 ± 0.01.
Sequence TCCCGTAAGT has a switch fluorescence ratio of 1.05 ± 0.069.
TCCCTTTTGG was tested, and the switch fluorescence ratio was 1.011 ± 0.0029.
TCCGAGGGAG gave a switch fluorescence ratio of 1.05 ± 0.079.
With TCCGAGTATG the switch fluorescence ratio was 1.08 ± 0.027.
In the case of TCCGATTGGG, the switch fluorescence ratio is reported as 0.9801 ± 0.0071.
Work on TCCGCCATGG yielded a switch fluorescence ratio of 2.71 ± 0.28.
Work on TCCGCGACGG yielded a switch fluorescence ratio of 1.4 ± 0.2.
In the case of TCCGCGGTTT, the switch fluorescence ratio is reported as 1.23 ± 0.18.
Work on TCCGGACCGG yielded a switch fluorescence ratio of 0.995 ± 0.019.
TCCGGACCTC gave a switch fluorescence ratio of 1.5 ± 0.34.
TCCGGCGGGA gave a switch fluorescence ratio of 1.26 ± 0.32.
TCCGGCTGAG was tested, and the switch fluorescence ratio was 1.02 ± 0.012.
Sequence TCCGGGTATC has a switch fluorescence ratio of 1.33 ± 0.04.
For TCCGGGTGGG, the switch fluorescence ratio was 1.09 ± 0.079.
TCCGGGTTTT gave a switch fluorescence ratio of 0.963 ± 0.019.
TCCGGTGTG gave a switch fluorescence ratio of 0.97 ± 0.015.
In the case of TCCGGTTTTA, the switch fluorescence ratio is reported as 0.981 ± 0.02.
TCCGGTTTTG was tested, and the switch fluorescence ratio was 0.979 ± 0.013.
TCCGTCAGCA gave a switch fluorescence ratio of 4.04 ± 0.52.
In the case of TCCGTGAGTG, the switch fluorescence ratio is reported as 1.07 ± 0.031.
Sequence TCCGTTTGTT has a switch fluorescence ratio of 0.991 ± 0.04.
In the case of TCCGTTTTGG, the switch fluorescence ratio is reported as 1.03 ± 0.066.
For TCCGTTTTTT, the switch fluorescence ratio was 1.04 ± 0.063.
TCCTAATGGG showed a switch fluorescence ratio of 0.985 ± 0.025.
In the case of TCCTACTGTA, the switch fluorescence ratio is reported as 1.1974 ± 0.00047.
Work on TCCTACTGTT yielded a switch fluorescence ratio of 0.9957 ± 0.0061.
TCCTAGAAC was tested, and the switch fluorescence ratio was 0.997 ± 0.026.
For TCCTAGGGGG, the switch fluorescence ratio was 1 ± 0.026.
In the case of TCCTCATGGT, the switch fluorescence ratio is reported as 1 ± 0.022.
TCCTCCGTGG showed a switch fluorescence ratio of 2.56 ± 0.59.
TCCTGACGTA was tested, and the switch fluorescence ratio was 1.11 ± 0.022.
With TCCTGATGGC the switch fluorescence ratio was 0.985 ± 0.016.
In the case of TCCTGCGCGT, the switch fluorescence ratio is reported as 4.52 ± 0.71.
With TCCTGGGCTA the switch fluorescence ratio was 1.57 ± 0.019.
Work on TCCTGGGGGA yielded a switch fluorescence ratio of 1.15 ± 0.22.
In the case of TCCTGTGCTG, the switch fluorescence ratio is reported as 1.09 ± 0.043.
With TCCTGTTTTT the switch fluorescence ratio was 1.01 ± 0.056.
TCCTTAAAAA was tested, and the switch fluorescence ratio was 1.1 ± 0.06.
TCCTTAATTT gave a switch fluorescence ratio of 1.02 ± 0.055.
Work on TCCTTCAACT yielded a switch fluorescence ratio of 1.08 ± 0.045.
Sequence TCCTTGACTT has a switch fluorescence ratio of 1.15 ± 0.26.
Work on TCCTTGGAGG yielded a switch fluorescence ratio of 0.989 ± 0.028.
For TCCTTTAATG, the switch fluorescence ratio was 0.9917 ± 0.0073.
With TCCTTTAGGT the switch fluorescence ratio was 0.993 ± 0.053.
In the case of TCCTTTGTGG, the switch fluorescence ratio is reported as 1.02 ± 0.021.
For TCGAAGAATG, the switch fluorescence ratio was 1.005 ± 0.002.
For TCGAAGGGTT, the switch fluorescence ratio was 0.993 ± 0.028.
In the case of TCGAAGTAGG, the switch fluorescence ratio is reported as 1.46 ± 0.71.
TCGAAGTGTT showed a switch fluorescence ratio of 0.989 ± 0.027.
TCGACATTAT was tested, and the switch fluorescence ratio was 1.034 ± 0.0055.
With TCGACGTCTC the switch fluorescence ratio was 1.29 ± 0.16.
For TCGACGTTGT, the switch fluorescence ratio was 1.1 ± 0.036.
For TCGACGTTTG, the switch fluorescence ratio was 1.01 ± 0.011.
Sequence TCGACTCACT has a switch fluorescence ratio of 1.2 ± 0.013.
In the case of TCGAGAGATA, the switch fluorescence ratio is reported as 1 ± 0.054.
Work on TCGAGGACTA yielded a switch fluorescence ratio of 0.999 ± 0.032.
Sequence TCGAGGCGGA has a switch fluorescence ratio of 0.985 ± 0.049.
For TCGAGGGCAG, the switch fluorescence ratio was 1.01 ± 0.029.
In the case of TCGAGGGGGA, the switch fluorescence ratio is reported as 1.31 ± 0.63.
TCGAGTAAGG was tested, and the switch fluorescence ratio was 1.18 ± 0.28.
In the case of TCGAGTCATT, the switch fluorescence ratio is reported as 0.9913 ± 0.005.
For TCGAGTCCTA, the switch fluorescence ratio was 0.9857 ± 0.0037.
TCGAGTGTGC showed a switch fluorescence ratio of 1.06 ± 0.021.
With TCGAGTTCTT the switch fluorescence ratio was 0.999 ± 0.012.
TCGATCCAAC gave a switch fluorescence ratio of 1.064 ± 0.0065.
TCGATGAGGG was tested, and the switch fluorescence ratio was 1.02 ± 0.026.
TCGATGGCAT showed a switch fluorescence ratio of 1.31 ± 0.065.
With TCGATGGCTT the switch fluorescence ratio was 1.05 ± 0.019.
In the case of TCGATGGGTG, the switch fluorescence ratio is reported as 1.01 ± 0.032.
With TCGATGTCGT the switch fluorescence ratio was 0.9927 ± 0.0059.
In the case of TCGATTAATT, the switch fluorescence ratio is reported as 1.1 ± 0.079.
TCGATTTGAT was tested, and the switch fluorescence ratio was 0.98541 ± 0.00062.
With TCGCAAAATA the switch fluorescence ratio was 2.47 ± 1.2.
Work on TCGCAATGTT yielded a switch fluorescence ratio of 3.58 ± 1.
TCGCAGGGTG gave a switch fluorescence ratio of 1.43 ± 0.47.
TCGCCATCCT gave a switch fluorescence ratio of 1.09 ± 0.019.
Sequence TCGCCTTTGG has a switch fluorescence ratio of 1.07 ± 0.072.
In the case of TCGCGAAATT, the switch fluorescence ratio is reported as 0.9763 ± 0.0042.
TCGCGAAGGG gave a switch fluorescence ratio of 1.01 ± 0.013.
For TCGCGATCAG, the switch fluorescence ratio was 1.12 ± 0.042.
Sequence TCGCGCCGGT has a switch fluorescence ratio of 1.005 ± 0.0062.
TCGCGGAATT showed a switch fluorescence ratio of 1.01 ± 0.066.
With TCGCGGCAGT the switch fluorescence ratio was 1.04 ± 0.015.
TCGCGGGAGA showed a switch fluorescence ratio of 1.05 ± 0.023.
TCGCGGGGGA showed a switch fluorescence ratio of 1.01 ± 0.037.
For TCGCGGGGTG, the switch fluorescence ratio was 1.02 ± 0.056.
With TCGCGGGTGG the switch fluorescence ratio was 1.03 ± 0.021.
TCGCTACTCG gave a switch fluorescence ratio of 3.07 ± 0.62.
For TCGCTCGCAT, the switch fluorescence ratio was 3.68 ± 0.73.
In the case of TCGCTTACTG, the switch fluorescence ratio is reported as 1.3 ± 0.053.
TCGCTTTGCT showed a switch fluorescence ratio of 1.31 ± 0.42.
For TCGCTTTTTT, the switch fluorescence ratio was 1.03 ± 0.068.
TCGGAATCTG gave a switch fluorescence ratio of 1 ± 0.1.
TCGGACCCTA gave a switch fluorescence ratio of 1.03 ± 0.041.
Sequence TCGGACGTCG has a switch fluorescence ratio of 1.07 ± 0.019.
In the case of TCGGACGTGC, the switch fluorescence ratio is reported as 1.35 ± 0.1.
With TCGGAGTAAC the switch fluorescence ratio was 1.667 ± 0.0081.
For TCGGAGTTTA, the switch fluorescence ratio was 1.04 ± 0.016.
Work on TCGGATAGGT yielded a switch fluorescence ratio of 1.02 ± 0.025.
TCGGATGTCA was tested, and the switch fluorescence ratio was 0.965 ± 0.049.
In the case of TCGGATTAGT, the switch fluorescence ratio is reported as 1 ± 0.025.
TCGGATTGTG showed a switch fluorescence ratio of 1.01 ± 0.021.
In the case of TCGGCAATGT, the switch fluorescence ratio is reported as 2.32 ± 1.6.
TCGGCAGGGG was tested, and the switch fluorescence ratio was 1.09 ± 0.035.
For TCGGCCATGG, the switch fluorescence ratio was 0.985 ± 0.031.
In the case of TCGGCGGACA, the switch fluorescence ratio is reported as 1 ± 0.023.
